Series [1] is described as follows: Pharmacokinetics in tumor-free SD rats (HPLC, non-compartmental model). Particulars: single dose of 25 mg/kg, within 7 days. Type of series: in vivo, Adult SD rats. The protocol:
Tumor-free Adult SD rats were administrated a single dose of 25 mg/kg, and four rats were used for each experimental point. The rats were sacrificed at different time points within 7 days, and the concentrations of pegylated irinotecan and its metabolite SN38 were measured and analyzed by HPLC. The analysis of pharmacokinetics was carried out by using a non-compartmental model.

The conditions of series [2]: nude mouse.
Source text: The nude mouse model was used to evaluate the maximum tolerated dose of each group. When the body weight of a nude mouse decreased by 20%, the death/survival was monitored and counted.
The subject of the next series is Mouse hepatoma H22 cells. Briefly: Anti-tumor effect in transplanted tumor model. Type of series: in vivo, mice. The note with it: H22 subcutaneous tumor; tumors weighed two weeks after transplantation. On the procedure:
An animal model of transplanted tumor was used. Mouse hepatoma H22 cells were transplanted subcutaneously into the right axillary region of mice to form solid tumors. After transplantation for 2 days and 7 days, drugs were administered intravenously via the tail vein as a single dose. Two weeks after transplantation, the mice were sacrificed by cervical dislocation, and the tumors were isolated and weighed.

The source of these data is US10660969B2, “Eight-arm polyethylene glycol derivative, production method therefor, and modified bio-related substance thereof” (priority 2015, dated 2020).

In the case of `CCOC(=O)CC(CN)(CC(=O)OCC)CC(=O)OCC` [Example T8, 8arm-PEG-Gly-IRES], in series [1], the “apparent elimination half-life of the metabolite SN38, ranking between groups” value was “the longest apparent elimination half-life”. Besides, the “maximum tolerated dose, ranking between groups” value in series [2] is recorded as “the lowest”. In addition, in the series on Mouse hepatoma H22 cells, the “tumor-inhibition ratio, ranking between groups” value is “the highest tumor-inhibition ratio”.
